Measured values as given in paper PMC9098222.

Molecular target: PIK3R2/p85β (UniProt O00459)
Test: anti-Myc IP, PIK3R2 immunoblot
Details: reference: Myc-IRS4 wild type; sites Y779

“IRS4 (insulin receptor substrate 4) (from UniProt O14654) Myc-IRS4 Y779F” was tested, and the “binding against the reference” value was “weaker”.
